B1: Lgals2 CRD-mouse IgG2a-Fc fusion protein (Fc fusion)
chain: KFEVKDLNMKPGMSLKIKGKIHNDVDRFLINLGQGKETLNLHFNPRFDESTIVCNTSEGGRWGQEQRENHMCFSPGSEVKITITFQDKDFKVTLPDGHQLTFPNRLGHNQLHYLSMGGLQISSFKLEGGGSGGGSGGGS
B2: Cd207 CRD-mouse IgG2a-Fc fusion protein (Fc fusion)
chain: FSGNFYYFSRTPKTWYSAEQFCISRKAHLTSVSSESEQKFLYKAADGIPHWIGLTKAGSEGDWYWVDQTSFNKEQSRRFWIPGEPNNAGNNEHCANIRVSALKCWNDGPCDNTFLFICKGGGSGGGSGGGS
B3: Grifin CRD-mouse IgG2a-Fc fusion protein (Fc fusion)
chain: FEAFCAGGLAPGWSLTVQGHADAGEEKFEINFLTDAGDIAFHVKPRFSSATVVGNAFQGGRWGQEEVSSIFPLTLGEPFEMEVSADAEHFHIYAQEQKVLQFPHRHRPLATITRVRVLSEHRLAQVELAGGGSGGGSGGGS
B4: Clec4e CRD-mouse IgG2a-Fc fusion protein (Fc fusion)
chain: YQSSCYFFSTTTLTWSSSLKNCSDMGAHLVVIDTQEEQEFLFRTKPKRKEFYIGLTDQVVEGQWQWVDDTPFTESLSFWDAGEPNNIVLVEDCATIRDSSNSRKNWNDIPCFYSMPWICEGGGSGGGSGGGS
B5: Klrd1 CRD-mouse IgG2a-Fc fusion protein (Fc fusion)
chain: HQCNCYFISKEEKSWKRSRDFCASQNSSLLQPQSRNELSFMNFSQTFFWIGMHYSEKRNAWLWEDGTVPSKDLFPEFSVIRPEHCIVYSPSKSVSAESCENKNRYICKGGGSGGGSGGGS
B6: Dgcr2 CRD-mouse IgG2a-Fc fusion protein (Fc fusion)
chain: CPSGWHHYEGTASCYRVYLSGENYWDAAQTCQRVNGSLATFSTDQELRFVLAQEWDQPERSFGWKDQRKLWVGYQYVITGRNHSLEGRWEVAFKGSPEVFLPPDPIFASAMSENDNVFCAQLQCFHFGGGSGGGSGGGS
B7: Clec9a CRD-mouse IgG2a-Fc fusion protein (Fc fusion)
chain: NGKSCYYVFERWEMWNISKKSCLKEGASLFQIDSKEEMEFISSIGKLKGGNKYWVGVFQDGISGSWFWEDGSSPLSDLLPAERQRSAGQICGYLKDSTLISDKCDSWKYFICEGGGSGGGSGGGS
B8: Klrb1a CRD-mouse IgG2a-Fc fusion protein (Fc fusion)
chain: ECPQDWLSHRDKCFHVSHVSNTWEEGLVDCDGKGATLMLIQDQEELRFLLDSIKEKYNSFWIGLRYTLPDMNWKWINGSTLNSDVLKITDDTENDSCAAISGDKVTFESCNSDNRWICQKGGGSGGGSGGGS
B9: Lgals4_2 CRD-mouse IgG2a-Fc fusion protein (Fc fusion)
chain: YVGALQGGLTVRRTIIIKGYVLPTARNFVINFKVGSSGDIALHLNPRIGDSVVRNSFMNGSWGAEERKVAYNPFGPGQFFDLSIRCGMDRFKVFANGQHLFDFSHRFQAFQMVDTLEINGDITLSYVQIGGGSGGGSGGGS
B10: Lgals8_1 CRD-mouse IgG2a-Fc fusion protein (Fc fusion)
chain: YVGTITEQLKPGSLIVIRGHVPKDSERFQVDFQLGNSLKPRADVAFHFNPRFKRSSCIVCNTLTQEKWGWEEITYDMPFRKEKSFEIVFMVLKNKFQVAVNGRHVLLYAHRISPEQIDTVGIYGKVNIHSIGFRGGGSGGGSGGGS
B11: Klri2 CRD-mouse IgG2a-Fc fusion protein (Fc fusion)
chain: FGNNFYCVFRENSKTWVESQSACEELNSHLVIIDSKAEVENLLLFEMDGWILHRMDGTNSSRLWGNDIKIRNTLMNDSEKKNHSCHYLRGNIFMPDECSAKKTYICEGGGSGGGSGGGS
B12: Cd209a CRD-mouse IgG2a-Fc fusion protein (Fc fusion)
chain: FQGSCYFFSVAQKSWNDSATACHNVGAQLVVIKSDEEQNFLQQTSKKRGYTWMGLIDMSKESTWYWVDGSPLTLSFMKYWSKGEPNNLGEEDCAEFRDDGWNDTKCTNKKFWICKGGGSGGGSGGGS
B13: Lgals8_2 CRD-mouse IgG2a-Fc fusion protein (Fc fusion)
chain: FEARLNASMGPGRTVVIKGEVNTNARSFNVDLVAGKTRDIALHLNPRLNVKAFVRNSFLQDAWGEEERNITCFPFSSGMYFEMIIYCDVREFKVAINGVHSLEYKHRFKDLSSIDTLSVDGDIRLLDVRSWGGGSGGGSGGGS
B14: Colec10 CRD-mouse IgG2a-Fc fusion protein (Fc fusion)
chain: TEEKFYYIVQEEKNYRESLTHCRIRGGMLAMPKDEVVNTLIADYVAKSGFFRVFIGVNDLEREGQYVFTDNTPLQNYSNWKEEEPSDPSGHEDCVEMLSSGRWNDTECHLTMYFVCEGGGSGGGSGGGS
B15: Lgals12_2 CRD-mouse IgG2a-Fc fusion protein (Fc fusion)
chain: CSRALPRGLWPGQVIVVRGLVLKEPKDFTLSLKDGTTHVPVTLRASFTDRTLAWVSSWGRKKLISAPFLFHPQRFFEVLLLCQEGGLKLALNGQGLGATSLDQKALEQLRELRISGNVHLYCVHCGGGSGGGSGGGS
B16: Klrb1 CRD-mouse IgG2a-Fc fusion protein (Fc fusion)
chain: HCDKCLFTSQTSRPWADGLVDCNLKGATLLLIQDEEELRLLQNFSKGKGQQFYIGLKYEEVDKVWKWMNGSILNTNLLQITGKDEENSCALISQTEVFSDSCSSDNHWICQGGGSGGGSGGGS
B17: Frem1 CRD-mouse IgG2a-Fc fusion protein (Fc fusion)
chain: HSGYCHILVTRQKGTWTTATRACREQHQGDLVTVLSRRHMQWLWAMSGRKPFWIGLKNQPRTGHWEWIGGEPVAFTNWRRGAPLHPKPGKNCALVQKRGQWQTKNCSKGKAHNFVGGGSGGGSGGGS
B18: Ly75_6 CRD-mouse IgG2a-Fc fusion protein (Fc fusion)
chain: FQNKCFLKVNSGPVTFSQASGICHSYGGTLPSVLSRGEQDFIISLLPEMEASLWIGLRWTAYERINRWTDNRELTYSNFHPLLVGRRLSIPTNFFDDESHFHCALILNLKKSPLTGTWNFTSCSERHSLSLCQKGGGSGGGSGGGS
B19: Colec11 CRD-mouse IgG2a-Fc fusion protein (Fc fusion)
chain: TESKIYLLVKEEKRYADAQLSCQARGGTLSMPKDEAANGLMASYLAQAGLARVFIGINDLEKEGAFVYSDRSPMQTFNKWRSGEPNNAYDEEDCVEMVASGGWNDVACHITMYFMCEGGGSGGGSGGGS
B20: Lgalslb CRD-mouse IgG2a-Fc fusion protein (Fc fusion)
chain: YFRGHIKGGMRPGKKVLVMGIVDHNPKSFAISLTCGDSEDPPADVAIELKVVFTNQQVFRNSCISGESDEENLAFPYFPFVPDQPFRMEIFCQQPCFRVLVDGHHLFDFYHRIQTLSAIDSIKISGDLQIGGGSGGGSGGGS

For one experiment, the target named is T1, monomeric SARS-CoV-2 receptor binding domain (RBD-H6) (SARS-CoV-2, UniProt P0DTC2 319-541).
T1 construct: Made in HEK293-6E cells; also called RBD Spike; monomeric RBD
As to the kind of experiment: ELISA screen. In general terms: In an ELISA, binding on a coated surface is turned into a signal by an enzyme label.
Consider B1, for which the “Mean normalized OD” value worked out at 0.018 OD.
Still for that read-out and setting: the result for B2 reads 0.118 OD; that for B3, 0 OD.
Still for that read-out and setting: the same measure for B4: 0.022 OD.
On the same count and under the same terms, the same measure for B5: 0.004 OD; for B6: 0.003 OD; for B7: 0.062 OD.
On to B8, for which the “Mean normalized OD” value is 0.002 OD.
Turning to B9, the “Mean normalized OD” value was 0.014 OD.
Regarding B10, the “Mean normalized OD” value came out at 0.031 OD.
On the same count and under the same terms, the result for B11 reads 0.001 OD; that for B12, 0.028 OD; that for B13, 0.012 OD.
Same read-out and setting: the result for B14 reads 0.008 OD; that for B15, 0.009 OD; that for B16, 0.005 OD.
The same measure, in the same setting: the same measure for B17: 0.013 OD.
Regarding B18, the “Mean normalized OD” value is 0.003 OD.
Consider B19, for which the “Mean normalized OD” value was determined as 0.013 OD.
Regarding B20, the “Mean normalized OD” value was determined as 0.01 OD.

A further experiment concerns the target T2, human recombinant soluble ACE2 (human, UniProt Q9BYF1 18-740).
T2 construct: also called hrsACE2
Put plainly: ELISA screen.
Take B1: the “Mean normalized OD” value amounted to 0.031 OD.
As to B2, the “Mean normalized OD” value came to 0.123 OD.
On the same count and under the same terms, the result for B3 reads 0.035 OD; that for B4, 0.222 OD; that for B5, 0.006 OD.
Same read-out and setting: the result for B6 reads 0.012 OD.
Regarding B7, the “Mean normalized OD” value was found to be 0.222 OD.
The same measure, in the same setting: the same measure for B8: 0 OD; for B9: 0.031 OD.
With B10, the “Mean normalized OD” value was 0.062 OD.
For the molecule B11, the “Mean normalized OD” value stood at 0.005 OD.
Still for that read-out and setting: the same measure for B12: 0.049 OD; for B13: 0.074 OD; for B14: 0.185 OD.
The same measure, in the same setting: the same measure for B15: 0.031 OD; for B16: 0.012 OD.
Regarding B17, the “Mean normalized OD” value came out at 0.028 OD.
On the same count and under the same terms, the same measure for B18: 0.005 OD; for B19: 0.153 OD.
Same read-out and setting: the same measure for B20: 0.047 OD.

Another experiment has as its target T3, full-length trimeric SARS-CoV-2 Spike protein (Spike-H6) (SARS-CoV-2, N-glycosylated (22 N-glycosylation sites)).
T3 construct: also called trimeric Spike; full-length Spike-H6
Put plainly: ELISA screen.
Regarding B1, the “Mean normalized OD” value is 0.035 OD.
Still for that read-out and setting: the same measure for B2: 0.028 OD; for B3: 0.004 OD; for B4: 0.037 OD.
On the same count and under the same terms, the same measure for B5: 0.003 OD.
For B6, the “Mean normalized OD” value was 0.005 OD.
Take B7: the “Mean normalized OD” value worked out at 0.029 OD.
On the same count and under the same terms, the result for B8 reads 0 OD.
Take B9: the “Mean normalized OD” value is 0.034 OD.
Take B10: the “Mean normalized OD” value is 0.019 OD.
Still for that read-out and setting: the same measure for B11: 0.006 OD; for B12: 0.014 OD.
On the same count and under the same terms, the result for B13 reads 0.037 OD.
Same read-out and setting: the result for B14 reads 0.036 OD.
With B15, the “Mean normalized OD” value was 0.025 OD.
The same measure, in the same setting: the result for B16 reads 0.002 OD.
On the same count and under the same terms, the result for B17 reads 0.03 OD; that for B18, 0.007 OD; that for B19, 0.043 OD.
As for B20, the “Mean normalized OD” value was 0.026 OD.

For the next experiment, the target named is T2, human recombinant soluble ACE2. As to the kind of experiment: ELISA.
Consider B1, for which the binding result is given as “no binding (tested: 10 µg/ml)”.
Same read-out and setting: the result for B2 reads “no binding (tested: 10 µg/ml)”; that for B3, “no binding (tested: 10 µg/ml)”.
Still for that read-out and setting: the result for B4 reads “no binding (tested: 10 µg/ml)”; that for B5, “no binding (tested: 10 µg/ml)”.
For B6, the binding result is reported as “no binding (tested: 10 µg/ml)”.
The same measure, in the same setting: the same measure for B7: “no binding (tested: 10 µg/ml)”; for B8: “no binding (tested: 10 µg/ml)”; for B9: “no binding (tested: 10 µg/ml)”.
B10: the binding result is listed as “no binding (tested: 10 µg/ml)”.
B11: the binding result was “no binding (tested: 10 µg/ml)”.
On the same count and under the same terms, the same measure for B12: “no binding (tested: 10 µg/ml)”; for B13: “no binding (tested: 10 µg/ml)”.
B14: the binding result was “no binding (tested: 10 µg/ml)”.
Consider B15, for which the binding result is “no binding (tested: 10 µg/ml)”.
For B16, the binding result is “no binding (tested: 10 µg/ml)”.
Turning to B17, the binding result is recorded as “no binding (tested: 10 µg/ml)”.
On the same count and under the same terms, the result for B18 reads “no binding (tested: 10 µg/ml)”; that for B19, “no binding (tested: 10 µg/ml)”; that for B20, “no binding (tested: 10 µg/ml)”.
